Values quoted from earlier work, collected in paper PMC10643566, “Insights into the mechanism of SARS-CoV-2 main protease autocatalytic maturation from model precursors” (Communications Biology, 2023).

Biological target: MPro (SARS-CoV-2) (UniProt P0DTD1)
Details: cited from earlier work

For MPro (from UniProt P0DTD1), which Kd is on record?
The Kd was 1.3 µM.
